Experiments:
FGFR3 = FGFR3 (UniProt P22607); test: phosphorylation enrichment, bacterial display (enrichment ratio); higher = better substrate or ligand; peptides without Tyr show the background
c-Abl (mouse) = test: as above
Fer (mouse) = test: as above
EPHB1 = EPHB1 (UniProt P54762); test: as above
Fes = Fes (UniProt P07332); test: as above
Hck = Hck (UniProt P08631); test: as above
AncSZ = test: as above
EPHB2 = EPHB2 (UniProt P29323); test: as above
Fyn = Fyn (UniProt P06241); test: as above
Sequence of Fyn (P06241 whole entry, looked up): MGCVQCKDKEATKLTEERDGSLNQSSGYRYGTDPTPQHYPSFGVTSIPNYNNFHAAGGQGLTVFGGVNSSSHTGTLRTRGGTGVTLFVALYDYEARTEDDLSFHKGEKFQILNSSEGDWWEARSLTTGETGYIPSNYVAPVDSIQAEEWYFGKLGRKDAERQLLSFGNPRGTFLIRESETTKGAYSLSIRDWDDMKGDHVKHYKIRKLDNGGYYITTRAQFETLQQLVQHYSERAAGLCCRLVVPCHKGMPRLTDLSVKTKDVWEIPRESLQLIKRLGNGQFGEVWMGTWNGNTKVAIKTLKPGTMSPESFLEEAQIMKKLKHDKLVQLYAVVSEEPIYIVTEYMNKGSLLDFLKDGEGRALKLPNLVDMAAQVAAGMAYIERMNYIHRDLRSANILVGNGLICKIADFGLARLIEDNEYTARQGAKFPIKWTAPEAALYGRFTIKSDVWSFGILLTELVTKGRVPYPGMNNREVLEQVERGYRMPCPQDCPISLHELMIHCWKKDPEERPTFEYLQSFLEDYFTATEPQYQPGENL

c-Src = test: as above
Jak2 = Jak2 (UniProt O60674); test: as above
MERTK = MERTK (UniProt Q12866); test: as above
FGFR1 = FGFR1 (UniProt P11362); test: as above
Sequence of FGFR1 (P11362 whole entry, looked up): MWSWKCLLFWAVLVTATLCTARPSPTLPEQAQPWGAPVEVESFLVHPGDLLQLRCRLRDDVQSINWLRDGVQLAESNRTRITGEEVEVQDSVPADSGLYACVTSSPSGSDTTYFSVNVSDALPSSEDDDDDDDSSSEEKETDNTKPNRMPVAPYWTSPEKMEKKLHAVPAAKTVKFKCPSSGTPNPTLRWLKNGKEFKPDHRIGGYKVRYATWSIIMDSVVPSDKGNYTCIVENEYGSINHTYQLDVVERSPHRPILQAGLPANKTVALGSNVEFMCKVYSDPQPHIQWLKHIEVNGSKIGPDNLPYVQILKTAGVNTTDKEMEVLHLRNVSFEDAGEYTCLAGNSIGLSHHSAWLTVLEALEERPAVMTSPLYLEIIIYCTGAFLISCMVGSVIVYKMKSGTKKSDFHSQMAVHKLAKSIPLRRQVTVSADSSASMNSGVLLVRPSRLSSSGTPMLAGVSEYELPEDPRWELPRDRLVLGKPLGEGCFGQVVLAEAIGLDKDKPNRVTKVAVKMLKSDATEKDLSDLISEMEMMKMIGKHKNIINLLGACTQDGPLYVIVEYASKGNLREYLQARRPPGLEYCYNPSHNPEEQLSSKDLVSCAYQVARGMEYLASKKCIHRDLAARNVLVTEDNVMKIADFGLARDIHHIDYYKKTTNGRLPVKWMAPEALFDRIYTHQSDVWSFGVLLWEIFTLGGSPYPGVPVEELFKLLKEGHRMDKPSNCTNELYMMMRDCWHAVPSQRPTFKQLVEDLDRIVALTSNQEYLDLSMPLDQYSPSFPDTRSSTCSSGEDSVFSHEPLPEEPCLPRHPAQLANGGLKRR

c-Src SH2 = test: SH2 binding enrichment of the phosphorylated peptide, bacterial display (enrichment ratio); higher = better substrate or ligand; peptides without Tyr show the background
SHP2-C SH2 = test: as above
Grb2 SH2 = Grb2 SH2 (UniProt P62993); test: as above
Sequence of Grb2 SH2 (P62993 whole entry, looked up, the tested form may be a part): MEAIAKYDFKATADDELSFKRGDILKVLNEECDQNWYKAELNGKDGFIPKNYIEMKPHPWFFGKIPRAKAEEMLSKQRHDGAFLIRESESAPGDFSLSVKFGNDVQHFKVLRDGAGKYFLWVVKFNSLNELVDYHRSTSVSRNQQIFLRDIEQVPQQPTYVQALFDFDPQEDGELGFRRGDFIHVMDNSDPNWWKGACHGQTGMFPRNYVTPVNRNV
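Throughout, for SH2 binding enrichment of the phosphorylated peptide, bacterial display: peptide library displayed on the E. coli surface as eCPX fusions, selected cells deep-sequenced, score is each peptide's frequency after selection divided by its frequency in the input.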
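Throughout, for phosphorylation enrichment, bacterial display: 11-residue human phosphosite peptides and single-mutation variants displayed on the E. coli surface, counted by deep sequencing, each peptide's frequency after selection divided by its frequency in the unselected input library; frequency after pTyr selection over input frequency; kinase dosed for 20-30% of maximal phosphorylation in three min.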

Sequence of EPHB2 (P29323 whole entry, looked up): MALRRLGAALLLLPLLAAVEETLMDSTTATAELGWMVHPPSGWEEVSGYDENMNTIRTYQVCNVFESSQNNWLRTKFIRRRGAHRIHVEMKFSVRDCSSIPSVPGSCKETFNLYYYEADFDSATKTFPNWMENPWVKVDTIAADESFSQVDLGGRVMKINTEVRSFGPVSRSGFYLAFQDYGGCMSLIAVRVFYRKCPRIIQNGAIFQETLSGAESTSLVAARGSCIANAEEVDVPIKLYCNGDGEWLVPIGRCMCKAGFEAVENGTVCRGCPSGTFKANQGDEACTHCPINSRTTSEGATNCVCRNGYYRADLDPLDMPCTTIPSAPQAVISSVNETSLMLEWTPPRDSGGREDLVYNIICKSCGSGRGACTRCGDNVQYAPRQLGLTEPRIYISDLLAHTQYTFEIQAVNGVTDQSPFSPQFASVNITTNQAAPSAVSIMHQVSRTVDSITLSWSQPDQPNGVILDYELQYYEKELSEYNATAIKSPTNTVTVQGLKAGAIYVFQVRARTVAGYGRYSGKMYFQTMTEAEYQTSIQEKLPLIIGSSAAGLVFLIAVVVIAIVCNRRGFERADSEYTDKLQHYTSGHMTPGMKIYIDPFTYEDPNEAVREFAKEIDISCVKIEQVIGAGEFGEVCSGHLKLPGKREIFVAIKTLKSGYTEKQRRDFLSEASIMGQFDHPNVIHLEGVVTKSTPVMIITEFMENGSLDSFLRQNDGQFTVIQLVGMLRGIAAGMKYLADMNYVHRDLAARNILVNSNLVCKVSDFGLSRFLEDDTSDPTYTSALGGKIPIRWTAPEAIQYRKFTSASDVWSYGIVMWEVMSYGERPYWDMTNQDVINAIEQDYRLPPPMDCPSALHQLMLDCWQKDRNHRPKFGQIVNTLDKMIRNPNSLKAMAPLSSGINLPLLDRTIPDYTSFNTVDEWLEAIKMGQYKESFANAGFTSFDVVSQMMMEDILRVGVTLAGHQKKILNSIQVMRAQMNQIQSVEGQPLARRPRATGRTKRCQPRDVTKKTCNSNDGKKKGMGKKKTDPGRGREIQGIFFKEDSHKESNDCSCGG
Sequence of Fes (P07332 whole entry, looked up): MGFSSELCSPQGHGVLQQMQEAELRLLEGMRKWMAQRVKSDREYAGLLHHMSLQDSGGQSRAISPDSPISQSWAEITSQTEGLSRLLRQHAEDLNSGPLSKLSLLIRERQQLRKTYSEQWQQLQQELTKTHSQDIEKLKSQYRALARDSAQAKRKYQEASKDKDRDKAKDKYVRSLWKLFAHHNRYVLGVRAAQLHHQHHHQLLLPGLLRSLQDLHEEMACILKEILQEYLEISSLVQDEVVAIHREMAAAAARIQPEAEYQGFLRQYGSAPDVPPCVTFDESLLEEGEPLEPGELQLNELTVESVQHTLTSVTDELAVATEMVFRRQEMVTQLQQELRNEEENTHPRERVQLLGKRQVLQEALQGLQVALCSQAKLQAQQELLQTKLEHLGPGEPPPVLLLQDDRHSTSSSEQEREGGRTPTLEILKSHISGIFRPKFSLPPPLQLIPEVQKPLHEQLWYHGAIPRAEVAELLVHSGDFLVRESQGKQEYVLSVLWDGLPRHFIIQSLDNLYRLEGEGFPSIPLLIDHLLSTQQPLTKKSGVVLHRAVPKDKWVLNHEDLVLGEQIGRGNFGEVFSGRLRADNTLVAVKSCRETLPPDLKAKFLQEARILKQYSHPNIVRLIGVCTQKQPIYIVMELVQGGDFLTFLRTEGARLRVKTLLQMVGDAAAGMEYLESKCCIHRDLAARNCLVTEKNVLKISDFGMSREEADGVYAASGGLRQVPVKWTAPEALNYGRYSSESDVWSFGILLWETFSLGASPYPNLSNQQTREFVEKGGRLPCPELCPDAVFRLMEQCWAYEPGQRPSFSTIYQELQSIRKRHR
Sequence of FGFR3 (P22607 whole entry, looked up): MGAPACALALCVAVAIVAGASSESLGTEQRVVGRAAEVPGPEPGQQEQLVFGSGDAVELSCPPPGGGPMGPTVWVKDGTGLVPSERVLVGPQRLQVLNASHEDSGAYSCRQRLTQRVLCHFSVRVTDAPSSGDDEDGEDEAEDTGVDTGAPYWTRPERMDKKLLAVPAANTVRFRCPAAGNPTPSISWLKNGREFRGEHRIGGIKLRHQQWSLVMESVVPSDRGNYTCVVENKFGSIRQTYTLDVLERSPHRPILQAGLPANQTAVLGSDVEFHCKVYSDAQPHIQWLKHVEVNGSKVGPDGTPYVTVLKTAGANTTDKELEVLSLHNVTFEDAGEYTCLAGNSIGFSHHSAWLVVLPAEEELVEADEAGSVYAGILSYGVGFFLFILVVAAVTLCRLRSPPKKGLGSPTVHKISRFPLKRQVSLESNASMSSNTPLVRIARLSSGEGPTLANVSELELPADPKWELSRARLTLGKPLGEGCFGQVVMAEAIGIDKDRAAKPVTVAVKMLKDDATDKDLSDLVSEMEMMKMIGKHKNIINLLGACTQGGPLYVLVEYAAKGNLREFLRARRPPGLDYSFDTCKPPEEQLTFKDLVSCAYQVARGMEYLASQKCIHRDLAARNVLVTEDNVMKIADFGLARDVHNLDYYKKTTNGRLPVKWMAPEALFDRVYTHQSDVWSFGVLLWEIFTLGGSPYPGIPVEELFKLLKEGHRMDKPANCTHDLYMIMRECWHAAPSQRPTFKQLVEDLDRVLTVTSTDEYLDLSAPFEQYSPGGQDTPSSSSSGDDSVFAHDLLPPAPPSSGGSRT
Sequence of Hck (P08631 whole entry, looked up): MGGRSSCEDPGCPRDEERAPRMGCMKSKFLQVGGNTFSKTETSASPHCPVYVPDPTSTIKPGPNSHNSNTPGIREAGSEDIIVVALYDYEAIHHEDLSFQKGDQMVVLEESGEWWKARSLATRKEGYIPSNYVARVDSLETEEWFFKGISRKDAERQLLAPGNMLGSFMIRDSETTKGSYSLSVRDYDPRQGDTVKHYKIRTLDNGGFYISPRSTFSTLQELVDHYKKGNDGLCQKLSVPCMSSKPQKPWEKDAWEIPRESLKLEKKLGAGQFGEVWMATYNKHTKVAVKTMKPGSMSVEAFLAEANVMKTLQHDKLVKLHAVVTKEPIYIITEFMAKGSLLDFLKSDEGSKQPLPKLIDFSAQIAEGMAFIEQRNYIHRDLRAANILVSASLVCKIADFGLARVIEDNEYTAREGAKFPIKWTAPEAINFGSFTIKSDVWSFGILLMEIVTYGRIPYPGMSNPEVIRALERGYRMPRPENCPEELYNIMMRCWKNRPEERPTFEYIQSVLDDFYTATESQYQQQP

Row | Sequence | phosphorylation enrichment (FGFR3) | phosphorylation enrichment (c-Abl (mouse)) | phosphorylation enrichment (Fer (mouse)) | phosphorylation enrichment (EPHB1) | phosphorylation enrichment (Fes) | phosphorylation enrichment (Hck) | phosphorylation enrichment (AncSZ) | phosphorylation enrichment (EPHB2) | phosphorylation enrichment (Fyn) | phosphorylation enrichment (c-Src) | phosphorylation enrichment (Jak2) | phosphorylation enrichment (MERTK) | phosphorylation enrichment (FGFR1) | SH2 binding enrichment (c-Src SH2) | SH2 binding enrichment (SHP2-C SH2) | SH2 binding enrichment (Grb2 SH2)
1 | IETGKYEILTE | 0.78 | 0.807 | 0.703 | 0.684 | 1.34 | 0.478 | 1.18 | 0.601 | 0.429 | 0.495 | 1.14 | 0.585 | 0.519 | 10.6 | 0.609 | 0.746
2 | SSSAIYDNPDL [DCP1B_Y191_N195D] | 0.651 | 9.33 | 6.58 | 7.52 | 1.07 | 5.17 | 1.29 | 10.9 | 3.81 | 2.7 | 0.914 | 5.29 | 0.519 | 1.94 | 0.621 | 0.667
3 | KYACSYTPVKA [FLNB_Y708_T703K] | 0.697 | 0.557 | 0.438 | 0.473 | 0.758 | 0.483 | 0.689 | 0.417 | 0.387 | 0.432 | 0.598 | 0.414 | 0.576 | 1.28 | 2.91 | 1.05
4 | KALKQYRAGPS [DDX27_Y763] | 0.368 | 0.531 | 0.389 | 0.34 | 0.553 | 0.454 | 0.473 | 0.312 | 0.43 | 0.407 | 0.545 | 0.391 | 0.355 | 0.438 | 0.804 | 1.04
5 | EILLSYPRTGY [TGM1_Y365_L366P] | 0.47 | 0.658 | 0.49 | 0.397 | 0.789 | 0.371 | 0.626 | 0.456 | 0.418 | 0.448 | 0.867 | 0.379 | 0.445 | 0.58 | 0.699 | 0.929
6 | ILDEAYVMAIV [EGFR_Y764_S768I] | 1.02 | 0.84 | 0.968 | 0.62 | 1.35 | 0.531 | 1.5 | 0.686 | 0.662 | 0.829 | 1.39 | 0.454 | 0.963 | 0.432 | 0.581 | 0.791
7 | IVRSLYEDLED [VHL_Y185] | 0.73 | 0.68 | 1.17 | 0.584 | 1.08 | 0.564 | 1.19 | 0.573 | 0.509 | 0.393 | 1.01 | 0.424 | 0.505 | 7.79 | 1.03 | 0.875
8 | DRLASYLDKLR [KRT12_Y139_V143L] | 0.597 | 0.868 | 0.479 | 0.494 | 0.894 | 0.472 | 0.921 | 0.567 | 0.459 | 0.498 | 0.713 | 0.45 | 0.458 | 0.545 | 0.582 | 0.876
9 | DFLSSYSAVKQ [OAT_Y85_N89K] | 0.445 | 0.46 | 0.746 | 0.516 | 1.03 | 0.429 | 1.5 | 0.502 | 0.466 | 0.444 | 0.639 | 0.273 | 0.491 | 1.21 | 4.04 | 1.05
10 | KAIMTYVFSFY [ACTN4_Y260_S262F] | 0.794 | 0.966 | 0.54 | 0.63 | 1.27 | 0.464 | 1.19 | 0.592 | 0.438 | 0.507 | 1.06 | 0.436 | 0.559 | 0.561 | 1.08 | 0.987
11 | RSYSPCDYQPC [TNS1_Y796_Y796C] | 1.28 | 0.457 | 0.544 | 17.1 | 0.935 | 0.777 | 1.12 | 8.45 | 0.554 | 1.56 | 0.533 | 0.726 | 2.76 | 1.17 | 0.421 | 0.759
12 | VITTLYIGFLG [KCNQ1_Y267_L262V] | 0.874 | 0.931 | 0.605 | 0.759 | 1.25 | 1.32 | 1.18 | 0.636 | 1.34 | 1.84 | 1.15 | 0.659 | 0.692 | 0.615 | 0.862 | 0.888
13 | TVFSDYLHPQF [CCPG1_Y569_YF] | 0.938 | 1.53 | 0.43 | 1.02 | 1.22 | 0.643 | 4.45 | 0.573 | 0.69 | 1.07 | 1.83 | 0.805 | 1.03 | 0.591 | 0.757 | 0.667
14 | YPIDHYLGKEM [G6PD_Y202_R198P] | 0.577 | 0.584 | 0.415 | 0.405 | 0.891 | 0.492 | 0.771 | 0.54 | 0.48 | 0.505 | 0.806 | 0.412 | 0.613 | 0.434 | 0.576 | 0.708
15 | AQAGEYGAEAL [HBA1_Y25_H21Q] | 0.629 | 0.491 | 0.465 | 0.609 | 0.96 | 0.514 | 0.965 | 0.545 | 0.507 | 0.33 | 0.767 | 0.327 | 0.557 | 0.608 | 0.842 | 0.931
16 | IGHHAYGDQFR [IDH1_Y135_R132H_YF] | 0.477 | 0.516 | 0.371 | 0.444 | 0.618 | 0.381 | 0.63 | 0.417 | 0.346 | 0.373 | 0.503 | 0.397 | 0.414 | 0.487 | 0.659 | 0.885

Source: the supplement of paper PMC10065799, “High-throughput profiling of sequence recognition by tyrosine kinases and SH2 domains using bacterial peptide display” (eLife, 2023)
